Measurements as given in paper doi:10.1101/311175 (bioRxiv, 2018).
Like-named read-outs stand apart in the source and are kept apart here.

Columns and labels:
[1] = target: the molecule itself; experiment: Number&Brightness
[2] = target: the molecule itself

Protein	stoichiometry N [1]	stoichiometry N [2]
E. coli glutamine synthetase fused to mEGFP (GlnA-mEGFP) (enzyme) MSAEHVLTMLNEHEVKFVDLRFTDTKGKEQHVTIPAHQVNAEFFEEGKMFDGSSIGGWKGINESDMVLMPDASTAVIDPFFADSTLIIRCDILEPGTLQGYDRDPRSIAKRAEDYLRSTGIADTVLFGPEPEFFLFDDIRFGSSISGSHVAIDDIEGAWNSSTQYEGGNKGHRPAVKGGYFPVPPVDSAQDIRSEMCLVMEQMGLVVEAHHHEVATAGQNEVATRFNTMTKKADEIQIYKYVVHNVAHRFGKTATFMPKPMFGDNGSGMHCHMSLSKNGVNLFAGDKYAGLSEQALYYIGGVIKHAKAINALANPTTNSYKRLVPGYEAPVMLAYSARNRSASIRIPVVSSPKARRIEVRFPDPAANPYLCFAALLMAGLDGIKNKIHPGEAMDKNLYDLPPEEAKEIPQVAGSLEEALNELDLDREFLKAGGVFTDEAIDAYIALRREEDDRVRMTPHPVEFELYYSV	11.9	–
Influenza A virus hemagglutinin fused to mEGFP (HA-wt-mEGFP) (natural protein) not shown	–	3.17
